From patent publication US20110143428A1 (Genentech, published 2011)
Changes are numbered by the printed parent chain.

T1: biotinylated human VEGF-C (human, UniProt P49767 112-227, limits assumed, biotin conjugated (site not stated))
T1 construct: Panning used the matured form from R&D Systems; also called biotin conjugated VEGF-C; biotinylated VEGF-C
T1 sequence: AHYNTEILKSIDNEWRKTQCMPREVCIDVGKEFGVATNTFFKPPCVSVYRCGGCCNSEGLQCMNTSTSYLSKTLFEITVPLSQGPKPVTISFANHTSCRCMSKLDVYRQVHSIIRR

T2: VEGF-C C137S
T2 construct: also called hVEGF-C C137S; human VEGF-C C137S
T2 VEGF-C: T1 sequence with C26S

T3: hVEGF-C (human, UniProt P49767)
T3 construct: unlabelled; also called human VEGF-C
T3 sequence (VEGF-C, looked up): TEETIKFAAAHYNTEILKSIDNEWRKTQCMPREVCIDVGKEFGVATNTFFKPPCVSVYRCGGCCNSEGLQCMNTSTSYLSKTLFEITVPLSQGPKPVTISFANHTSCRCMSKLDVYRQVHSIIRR

T4: mature VEGF-C (R&D Systems) (human, UniProt P49767 103-227)
T4 construct: Bought from R&D Systems; also called human VEGF-C matured form (R&D systems)
T4 sequence: T3 sequence (VEGF-C, looked up)

B1: anti-VEGF-C antibody mVC4.5 (mIgG2a) (antibody, V domains shown)
VH: EVQLVESGGGLVQPGGSLRLSCAASGFTFTDNWIHWVRQAPGKGLEWVAVISPYSGATYYADSVKGRFTISADTSKNTAYLQMNSLRAEDTAVYYCARDADYKYAFWAFDYWGQGTLVTVSS
VL: DIQMTQSPSSLSASVGDRVTITCRASQDVSTAVAWYQQKPGKAPKLLIYSASFLYSGVPSRFSGSGSGTDFTLTISSLQPEDFATYYCQQSYTTPPTFGQGTKVEIKR
notes: VC4.5 variable domains on a murine IgG2a backbone; also called VC4.5 murine IgG2a form; murine backbone anti-VEGF-C antibody
B2: anti-VEGF-C antibody hVC4.5 (hIgG1) (antibody, V domains shown)
VH: B1 VH
VL: B1 VL
notes: Tested as human IgG1; also called VC4.5 human IgG1 form; human backbone anti-VEGF-C antibody
B3: anti-VEGF-C IgG VC4 (antibody, V domains shown)
VH: B1 VH with A49G, K103D, F106G
VL: DIQMTQSPSSLSASVGDRVTITCRASQDVSTAVAWYQQKPGKAPKLLIYSASFLYSGVPSRFSGSGSGTDFTLTISSLQPEDFATYYCQQSYTTPPTFGQGTKVEIK
notes: Only the six HVRs are tied to this clone; also called clone VC4
B4: VC4.5Fab (Fab, V domains shown)
VH: B1 VH
VL: B1 VL
B5: VC4.3 (antibody, V domains shown)
VH: B1 VH with D31Y, N32S, A49G, V50F, Y54G, S55V, A57Y, T58S, K103D, F106G
VL: B3 VL with S91T, T93R, T94I, P96Y
notes: also called clone VC4.3
B6: VC4.4 (antibody, V domains shown)
VH: B1 VH with A49G, A100V, K103Y, F106W, F109L
VL: B3 VL
notes: also called clone VC4.4
B7: anti-VEGF-C IgG VC3 (antibody, V domains shown)
VH: EVQLVESGGGLVQPGGSLRLSCAASGFTFTNTDIHWVRQAPGKGLEWVAWISPSSGYTDYADSVKGRFTISADTSKNTAYLQMNSLRAEDTAVYYCARWRDYRFGGVMDYWGQGTLVTVSS
VL: B3 VL
notes: Only the six HVRs are tied to this clone; also called clone VC3
B8: anti-VEGF-C IgG VC1 (antibody, V domains shown)
VH: EVQLVESGGGLVQPGGSLRLSCAASGFTFSDSDIHWVRQAPGKGLEWVAWISPYSGYTDYADSVKGRFTISADTSKNTAYLQMNSLRAEDTAVYYCARLFEVIFDYWGQGTLVTVSS
VL: B3 VL
notes: Only the six HVRs are tied to this clone; also called clone VC1

Experiments:
[1] = molecular target: T1, biotinylated human VEGF-C; experiment: receptor blocking ELISA: fixed biotin-VEGF-C incubated 2 h with serial dilutions of IgG, unbound VEGF-C captured on immobilized VEGFR3-Fc, streptavidin-HRP, OD450; blocked interaction VEGF-C/VEGFR3. The value stands in brackets after the curve's name in the legend box; the quantity is not named on the sheet, the value agrees with the midpoint of the curve
[2] = molecular target: T2, VEGF-C C137S; experiment: phage competition ELISA as in paragraph 556 with human VEGF-C C137S as antigen: phage-displayed clone VC4.5, soluble antigen varied, anti-M13-HRP, OD450
[3] = molecular target: T2, VEGF-C C137S; experiment: competition ELISA: three-fold serial dilutions of VC4.5 IgG incubated 2 h on hVEGF-C C137S coated plate (5 ug/ml), then VC4.5 phage for 15 min, anti-M13-HRP, OD450 in %; competitor: VC4.5 phage
[4] = molecular target: T3, hVEGF-C; experiment: phage competition ELISA: phage-displayed clone VC4.5 incubated with increasing soluble hVEGF-C, unbound phage captured on hVEGF-C coated plate, anti-M13-HRP, OD450
[5] = molecular target: T4, mature VEGF-C (R&D Systems); experiment: SPR, Biacore (IgG1): human IgG captured on CM5 chip, VEGF-C injected, 1:1 Langmuir fit
[6] = molecular target: T2, VEGF-C C137S; experiment: as above
[7] = molecular target: T3, hVEGF-C; experiment: SPR, BIAcore-3000, 25 C: human IgG captured on CM5 chip (about 500 RU), human VEGF-C injected at 12.5-500 nM, 1:1 Langmuir fit
[8] = molecular target: T3, hVEGF-C; experiment: phage competition ELISA: phage-displayed clone incubated with increasing soluble hVEGF-C, unbound phage captured on hVEGF-C coated plate, anti-M13-HRP, OD450
[9] = molecular target: T3, hVEGF-C; experiment: as above; remark: listed apart in the source
[10] = molecular target: T4, mature VEGF-C (R&D Systems); experiment: SPR, Biacore (Fab), VC4.5 Fab protein; set-up for the Fab not described (paragraph 557 describes captured IgG)
[11] = molecular target: T3, hVEGF-C; experiment: phage competition ELISA: phage-displayed clone incubated with increasing soluble hVEGF-C, unbound phage captured on hVEGF-C coated plate, anti-M13-HRP, OD450; remark: listed apart in the source

Row | Binder | Kd [7] [nM] | koff [7] [s⁻¹] | kon [7] [M⁻¹ s⁻¹] | IC50 [8] [nM] | IC50 [9] [nM] | also measured
1 | B1 |  |  |  |  |  | IC50 [1]: 0.74 nM
2 | B2 |  |  |  |  |  | IC50 [2]: 5.4 nM; IC50 (read off the curve) [3]: ~7 nM; IC50 [4]: 1.7 nM; Kd [5]: 140 nM; Kd [6]: 1.1 nM; IC50 [1]: 0.54 nM
3 | B3 | 0.97 | 0.000263 | 271000 | 32 | 32 | 
4 | B4 |  |  |  |  |  | Kd [10]: 27.5 nM
5 | B5 |  |  |  |  | 2.72 | 
6 | B6 |  |  |  |  | 2.17 | 
7 | B7 | 0.92 | 0.000541 | 588000 | 300 |  | 
8 | B8 | 0.17 | 0.000189 | 1.07e+06 | 38 |  | IC50 [11]: 21.5 nM
